Measurements reported in patent US12448436B2, “Antibody specifically binding to GRP94 or antigen-binding fragment thereof, and uses thereof” (KOOKMIN UNIVERSITY INDUSTRY ACADEMY COOPERATION FOUNDATION, priority 2020, dated 2025).
“Also recorded” adds a separate entry of the source.

B1: B5: anti-GRP94 human IgG antibody; CDRs SEQ ID NOS: 1 to 6, VH SEQ ID NO: 7, VL SEQ ID NO: 8 (antibody, V domains shown)
VH: EVQLLESGGGLVQPGGSLRLSCAASGFTFSNYYMSWVRQAPGKGLEWVSGIYPNSGSTYYADSVKGRFTISRDNSKNTLYLQMNSLRAEDTAVYYCARDPLHPARFPFDYWGQGTLVTVSS
VL: QSVLTQPPSASGTPGQRVTISCTGSSSNIGNNAVSWYQQLPGTAPKLLIYADSHRPSGVPDRFSGSKSGTSASLAISGLRSEDEADYYCGAWDASLNAYVFGGGTKLTVL
modifications: Amino acid sequence of heavy chain variable of GRP94 B5; Amino acid sequence of light chain variable of GRP94 B5
B2: 3G7: anti-GRP94 human IgG antibody; CDRs SEQ ID NOS: 25 to 30, VH SEQ ID NO: 31, VL SEQ ID NO: 32 (antibody, V domains shown)
VH: EVQLLESGGGLVQPGGSLRLSCAASGFTFSNYSMSWVRQAPGKGLEWVSGIYYGSGNKYYADSVKGRFTISRDNSKNTLYLQMNSLRAEDTAVYYCAKNLASFDYWGQGTLVTVSS
VL: QSVLTQPPSASGTPGQRVTISCSGSSSNIGSNSVNWYQQLPGTAPKLLIYSNSHRPSGVPDRFSGSKSGTSASLAISGLRSEDEADYYCGTWDSSLSGYVFGGGTKLTVL
modifications: Amino acid sequence of heavy chain variable of GRP94 3G7; Amino acid sequence of light chain variable of GRP94 3G7
B3: E5: anti-GRP94 human IgG antibody; CDRs SEQ ID NOS: 9 to 14, VH SEQ ID NO: 15, VL SEQ ID NO: 16 (antibody, V domains shown)
VH: EVQLLESGGGLVQPGGSLRLSCAASGFTFSNYAMSWVRQAPGKGLEWVSGISSSSGSTYYADSVKGRFTTSRDNSKNTLYLQMNSLRAEDTAVYYCARDRHPFSPNWFDYWGQGTLVTVSS
VL: QSVLTQPPSASGTPGQRVTISCSGSPSNIGSNTVTWYQQLPGTAPKLLIYADSHRPSGVPDRFSGSKSGTSASLAISGLRSEDEADYYCASWDDSLNGYVFGGGTKLTVL
modifications: Amino acid sequence of heavy chain variable of GRP94 E5; Amino acid sequence of light chain variable of GRP94 E5

Experiments:
recombinant rat GRP94 = recombinant rat GRP94 (Rattus norvegicus, UniProt Q66HD0); assay: ELISA binding to recombinant rat GRP94; conditions: high specificity stated for human and rat antigens
Experimental: (§1) Each well of 96-well plates was coated with 0.1 μg of recombinant human GRP94 (rhGRP94), blocked with 3% (w/v) bovine serum albumin (BSA) in phosphate buffered saline (PBS) for 2 hours at 37° C., and incubated with 100 μL of GRP94 targeting IgG (20 μg/mL) for 2 hours at 37° C. The plates were washed thrice with 0.05% PBS-T, and 100 μL of a 500:1 dilution of the secondary antibody anti-human Fc Ab (Sigma-Aldrich) was added to each well. Incubation at 37° C. for 1 hour was followed by three rounds of washing with 0.05% PBS-T. Then, 100 μL of 3,3′,5,5′-tetramethylbenzidine (1-step ultra TMB) substrate solution was added to each well. Finally, optical densities were measured at 450 nm using a microplate reader (Synergy H1, BioTek).
(§2) After 96-well plates were coated with BSA, recombinant human GRP94, recombinant rat GRP94, and recombinant monkey GRP94, their binding affinity for each antibody (B5, E5, 2H5, or 3G7) was measured by ELISA.

[1] = Protein aggregation index (UV absorbance 280/340 nm); type: physicochemical; conditions: antibody in PBS; 100×(Abs340/[Abs280−Abs340]); control HCl-aggregated GRP94 antigen
Experimental: To evaluate the production the antibodies (B5, E5, 2H5, and 3G7) of the present disclosure and the antibody aggregation after purification, each of the antibodies was added to PBS and absorbance was read at 280 nm and 340 nm using NanoDrop 2000 (Thermo Fisher Scientific). The protein aggregation index was calculated from UV absorbance according to the following equation. As a control, the GRP94 antigen that was induced by treatment with HCl to aggregate was used. Protein Aggregation Index=100×(Abs340/[Abs280−Abs340]) Equation 1

HCT8 cells = assay: In vitro CRC proliferation assay, HCT8; type: cell-based, human; conditions: 20 μg/mL; for cell index at the end point: 72 hours, MOCK 4.8±0.25; for cell growth inhibitory ability: end point, relative to the control PBS
Experimental: (§3) The four anti-GRP94 human IgG antibodies B5, E5, 2H5, and 3G7 of the present disclosure were examined in vitro for effect on CRC cell proliferation. […] The culture medium was removed by suction and the cells were washed with 10 mL of phosphate buffered saline (hereinafter PBS). After removal of PBS by suction, the cells were treated 2 mL of TrypLE Express Enzyme at 37° C. for 3 minutes in a 5% CO2 incubator. Thereafter, the cells were added with 8 mL of the culture medium, transferred to 15-mL tube, and centrifuged at 500×g for 5 minutes. After removal of the supernatant, the cells were suspended in the culture medium. From a small portion of the cell suspension, the cells were counted using the Countess II Automated Cell Counter. […] The 96-well plates were mounted on the Incucyte Zoom system. With the microscope magnification set at 4×, images were collected at intervals of 2 hours for 72 hours. From the collected images, cell growth was monitored using the IncuCyte FLR live content imaging system (Essen Bioscience, Ann Arbor, MI, USA).

[2] = molecular target: T1, rhGRP94 CTD fragment (part 4, Glu 602-Glu 799) (Homo sapiens, UniProt P14625); assay: Epitope comparison ELISA, rhGRP94 fragment part 4; type: binding; conditions: antibody 1 μg/mL, 100 ng fragment
T1 construct: Part; 4 (Glu 602-Glu 799) of the human GRP94 gene (Gene ID: 7184); made in house; host or cells: Expi293 expression system (pcDNA 3.4)
Excerpt: To determine which portion (or domain) of the GRP94 protein is bound by the developed antibodies, GRP94 fragments part. 1 and part. 4 were constructed wherein part. 1 was composed of the N-terminal domain (NTD), the Ca^2+ binding domain, the middle domain (MD), and the C-terminal domain (CTD) while part. 4 was derived from part. 1 by cutting off the NTD, the Ca^2+ binding domain, and the MD. In brief, Part. 1 (Asp 22-Glu 799) and Part. 4 (Glu 602-Glu 799) of the human GRP94 gene (Gene ID: 7184) were synthesized and subcloned into pcDNA 3.4 (Invitrogen) mammalian expression vector to finally recombinant DNAs. Using the Expi293 expression system (Invitrogen), the proteins were expressed and purified. The purified antigens part. 1 and part. 4 were analyzed for molecular weight by SDS-PAGE.
Next, ELISA was carried out to examine whether the four antibodies of the present disclosure bind to part 1 and part 4. First, 100 ng of each of the rhGRP94 fragment parts 1 and 4 was fixed to a high binding plate by incubation at 4° C. for 14 hours (overnight binding, 14 hrs). The same amount of BSA was used as a negative control. Then, the plate was blocked with 3% BSA, followed by incubation at 37° C. for 2 hours with 100 μL containing each of the anti-GRP94 antibodies (B5, E5, 2H5, and 3G7) of the present disclosure at a density of 1 μg/mL. After three rounds of washing with PBS-T, the plate was treated at 37° C. for 1 hour with a 5000:1 dilution of anti-Fc-HRP (Catalog #31423 Invitrogen). Color development was induced using 1-step-ultra TMB (Invitrogen) for 10 minutes and then terminated with […] (2N). Absorbance at 450 nm was read.

[3] = In vivo hepatotoxicity and nephrotoxicity in colorectal xenograft model; parameters: species or system Balb/c nude mice; conditions: mouse, 10 mg/kg
Experimental: To assay the four antibodies of the present disclosure for in vivo hepatotoxicity and nephrotoxicity, the same xenograft model as in Example 11 weighed every week. After six weeks of the experiment, GOT (glutamic oxaloacetic transaminase), GPT (glutamate pyruvate transaminase), and TBIL (total bilirubin) were measured for hepatotoxicity assay while BUN (blood urea nitrogen) and CRE (creatinine) were measured for nephrotoxicity assay. The results are depicted in FIGS. 27a and 27b.

recombinant monkey GRP94 = recombinant monkey GRP94 (Macaca fascicularis, UniProt Q4R520); assay: ELISA binding to recombinant monkey GRP94
Experimental: as §1, §2

recombinant human GRP94 = molecular target: T2, recombinant human GRP94 (Homo sapiens, UniProt P14625); assay: ELISA binding to recombinant human GRP94; conditions: high specificity stated for human and rat antigens
T2 construct: made in house; host or cells: Expi293 cells (pcDNA 3.4)
Experimental: as §1
The four GRP94 IgGs (B5, E5, 2H5, and 3G7) of the present disclosure were measured for equilibrium dissociation constant (KD). In this regard, each well of 96-well plates was coated with 100 ng of rhGRP94 and blocked with 3% (w/v) bovine serum albumin (BSA) in PBS at 37° C. for 2 hours. Next, the plates were incubated with a concentration gradient of 0 nM to 500 nM of each clone for the GRP94 IgGs at 37° C. for 2 hours. The use of a secondary antibody and the measurement of optical density were conducted as described for the ELISA.
as §2

LoVo cells = assay: In vitro CRC proliferation assay, LoVo; type: cell-based, human; conditions: 20 μg/mL; for cell index at the end point: 72 hours, MOCK 3.76±0.19; for cell growth inhibitory ability: end point, relative to the control PBS
Experimental: as §3

Chain of recombinant rat GRP94 (Q66HD0 22-804): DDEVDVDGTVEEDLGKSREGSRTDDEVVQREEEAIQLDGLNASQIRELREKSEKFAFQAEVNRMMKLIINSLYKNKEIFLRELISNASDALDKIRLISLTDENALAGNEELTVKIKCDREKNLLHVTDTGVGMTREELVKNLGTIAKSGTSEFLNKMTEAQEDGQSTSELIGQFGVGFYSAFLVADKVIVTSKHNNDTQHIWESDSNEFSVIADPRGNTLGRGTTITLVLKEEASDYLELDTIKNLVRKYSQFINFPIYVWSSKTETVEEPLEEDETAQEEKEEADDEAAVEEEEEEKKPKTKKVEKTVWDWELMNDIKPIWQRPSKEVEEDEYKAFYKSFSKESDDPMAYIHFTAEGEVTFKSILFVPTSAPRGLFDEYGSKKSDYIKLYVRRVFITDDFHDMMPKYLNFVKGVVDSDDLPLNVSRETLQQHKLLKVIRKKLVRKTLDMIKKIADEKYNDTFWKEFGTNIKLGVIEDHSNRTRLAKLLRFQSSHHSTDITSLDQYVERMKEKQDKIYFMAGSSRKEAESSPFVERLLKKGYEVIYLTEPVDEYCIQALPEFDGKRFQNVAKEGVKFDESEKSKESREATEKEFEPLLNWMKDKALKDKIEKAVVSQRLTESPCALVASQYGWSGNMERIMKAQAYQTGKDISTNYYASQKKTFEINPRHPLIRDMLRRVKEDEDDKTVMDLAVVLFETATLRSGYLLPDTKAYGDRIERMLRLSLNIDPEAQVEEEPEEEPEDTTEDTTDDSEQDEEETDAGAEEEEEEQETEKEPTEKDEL
T2 sequence (P14625 22-803): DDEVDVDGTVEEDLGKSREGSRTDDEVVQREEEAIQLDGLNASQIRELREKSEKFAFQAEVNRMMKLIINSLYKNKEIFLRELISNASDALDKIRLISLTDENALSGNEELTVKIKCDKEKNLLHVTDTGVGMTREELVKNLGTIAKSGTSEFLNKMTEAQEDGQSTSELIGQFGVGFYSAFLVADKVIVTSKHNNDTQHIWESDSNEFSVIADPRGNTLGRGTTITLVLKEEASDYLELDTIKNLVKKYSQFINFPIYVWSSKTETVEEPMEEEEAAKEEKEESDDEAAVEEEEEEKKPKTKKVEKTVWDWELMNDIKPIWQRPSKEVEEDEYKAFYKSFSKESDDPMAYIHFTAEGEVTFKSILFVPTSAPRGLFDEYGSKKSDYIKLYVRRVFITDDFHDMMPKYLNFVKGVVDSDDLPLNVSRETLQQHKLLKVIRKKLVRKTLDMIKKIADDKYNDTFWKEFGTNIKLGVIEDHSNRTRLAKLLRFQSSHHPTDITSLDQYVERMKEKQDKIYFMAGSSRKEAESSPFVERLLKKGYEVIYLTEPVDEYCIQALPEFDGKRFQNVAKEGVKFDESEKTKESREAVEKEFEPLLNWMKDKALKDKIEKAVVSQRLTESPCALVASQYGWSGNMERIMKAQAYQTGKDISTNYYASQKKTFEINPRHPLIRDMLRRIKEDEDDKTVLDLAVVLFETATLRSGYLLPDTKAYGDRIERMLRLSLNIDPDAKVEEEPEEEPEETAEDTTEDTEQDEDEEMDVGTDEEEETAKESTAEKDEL
Chain of recombinant monkey GRP94 (Q4R520 22-804): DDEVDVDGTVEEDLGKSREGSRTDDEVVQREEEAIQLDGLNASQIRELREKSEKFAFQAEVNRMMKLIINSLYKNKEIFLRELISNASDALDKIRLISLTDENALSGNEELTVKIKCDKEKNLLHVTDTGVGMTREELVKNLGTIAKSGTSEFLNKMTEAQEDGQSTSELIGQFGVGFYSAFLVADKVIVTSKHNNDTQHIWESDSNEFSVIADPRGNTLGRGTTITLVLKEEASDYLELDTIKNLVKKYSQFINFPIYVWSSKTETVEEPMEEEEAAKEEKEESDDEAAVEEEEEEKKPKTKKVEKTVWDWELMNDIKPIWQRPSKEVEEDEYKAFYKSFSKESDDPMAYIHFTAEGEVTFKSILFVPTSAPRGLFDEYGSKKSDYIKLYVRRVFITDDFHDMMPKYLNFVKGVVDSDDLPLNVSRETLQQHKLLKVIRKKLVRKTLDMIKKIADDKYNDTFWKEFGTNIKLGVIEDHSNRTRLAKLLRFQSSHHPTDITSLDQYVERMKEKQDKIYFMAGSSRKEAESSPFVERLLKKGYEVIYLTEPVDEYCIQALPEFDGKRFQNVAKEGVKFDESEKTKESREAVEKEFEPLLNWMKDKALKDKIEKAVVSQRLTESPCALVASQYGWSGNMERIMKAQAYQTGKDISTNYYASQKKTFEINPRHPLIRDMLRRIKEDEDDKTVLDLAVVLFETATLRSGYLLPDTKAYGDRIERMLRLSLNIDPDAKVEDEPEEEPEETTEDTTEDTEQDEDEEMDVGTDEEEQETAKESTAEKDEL
T1 sequence (P14625 602-799): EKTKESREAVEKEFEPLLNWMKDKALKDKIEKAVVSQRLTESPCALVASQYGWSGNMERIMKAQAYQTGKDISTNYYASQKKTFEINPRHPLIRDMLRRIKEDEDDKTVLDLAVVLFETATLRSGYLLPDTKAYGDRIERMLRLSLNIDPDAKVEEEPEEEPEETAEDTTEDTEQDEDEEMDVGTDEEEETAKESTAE

| Molecule | binding to recombinant rat GRP94 (recombinant rat GRP94) | protein aggregation index [1] | cell index at the end point (HCT8 cells) | cell growth inhibitory ability (HCT8 cells) | binding to part 4 (Glu 602-Glu 799) [2] | changes in body weight [3] | changes in serum levels of liver and kidney functional indices (GOT, GPT, TBIL, BUN, and CREA) [3] | binding to recombinant monkey GRP94 (recombinant monkey GRP94) | binding to recombinant human GRP94 (recombinant human GRP94) | cell index at the end point (LoVo cells) | cell growth inhibitory ability (LoVo cells) |
| --- | --- | --- | --- | --- | --- | --- | --- | --- | --- | --- | --- |
| B1 | bind | low | 3.15±0.21 | excellent inhibitory activity | did not bind | no significant changes | no significant changes | bind | bind | 2.69±0.04 | statistically significant; also recorded: excellent inhibitory activity |
| B2 | bind | low | 3.40±0.16 | excellent inhibitory activity | did not bind | no significant changes | no significant changes | bind | bind | 2.87±0.08 | statistically significant; also recorded: excellent inhibitory activity |
| B3 | bind | low | 3.33±0.31 | excellent inhibitory activity | did not bind | no significant changes | no significant changes | bind | bind | 2.73±0.22 | statistically significant; also recorded: excellent inhibitory activity |
